This note sets out measurements from patent publication US20110217401.

This data set addresses human apolipoprotein B (apoB) of serum low density lipoprotein particles (UniProt P04114).

Sequence of human apolipoprotein B (apoB) of serum low density lipoprotein particles (P04114 28-4563): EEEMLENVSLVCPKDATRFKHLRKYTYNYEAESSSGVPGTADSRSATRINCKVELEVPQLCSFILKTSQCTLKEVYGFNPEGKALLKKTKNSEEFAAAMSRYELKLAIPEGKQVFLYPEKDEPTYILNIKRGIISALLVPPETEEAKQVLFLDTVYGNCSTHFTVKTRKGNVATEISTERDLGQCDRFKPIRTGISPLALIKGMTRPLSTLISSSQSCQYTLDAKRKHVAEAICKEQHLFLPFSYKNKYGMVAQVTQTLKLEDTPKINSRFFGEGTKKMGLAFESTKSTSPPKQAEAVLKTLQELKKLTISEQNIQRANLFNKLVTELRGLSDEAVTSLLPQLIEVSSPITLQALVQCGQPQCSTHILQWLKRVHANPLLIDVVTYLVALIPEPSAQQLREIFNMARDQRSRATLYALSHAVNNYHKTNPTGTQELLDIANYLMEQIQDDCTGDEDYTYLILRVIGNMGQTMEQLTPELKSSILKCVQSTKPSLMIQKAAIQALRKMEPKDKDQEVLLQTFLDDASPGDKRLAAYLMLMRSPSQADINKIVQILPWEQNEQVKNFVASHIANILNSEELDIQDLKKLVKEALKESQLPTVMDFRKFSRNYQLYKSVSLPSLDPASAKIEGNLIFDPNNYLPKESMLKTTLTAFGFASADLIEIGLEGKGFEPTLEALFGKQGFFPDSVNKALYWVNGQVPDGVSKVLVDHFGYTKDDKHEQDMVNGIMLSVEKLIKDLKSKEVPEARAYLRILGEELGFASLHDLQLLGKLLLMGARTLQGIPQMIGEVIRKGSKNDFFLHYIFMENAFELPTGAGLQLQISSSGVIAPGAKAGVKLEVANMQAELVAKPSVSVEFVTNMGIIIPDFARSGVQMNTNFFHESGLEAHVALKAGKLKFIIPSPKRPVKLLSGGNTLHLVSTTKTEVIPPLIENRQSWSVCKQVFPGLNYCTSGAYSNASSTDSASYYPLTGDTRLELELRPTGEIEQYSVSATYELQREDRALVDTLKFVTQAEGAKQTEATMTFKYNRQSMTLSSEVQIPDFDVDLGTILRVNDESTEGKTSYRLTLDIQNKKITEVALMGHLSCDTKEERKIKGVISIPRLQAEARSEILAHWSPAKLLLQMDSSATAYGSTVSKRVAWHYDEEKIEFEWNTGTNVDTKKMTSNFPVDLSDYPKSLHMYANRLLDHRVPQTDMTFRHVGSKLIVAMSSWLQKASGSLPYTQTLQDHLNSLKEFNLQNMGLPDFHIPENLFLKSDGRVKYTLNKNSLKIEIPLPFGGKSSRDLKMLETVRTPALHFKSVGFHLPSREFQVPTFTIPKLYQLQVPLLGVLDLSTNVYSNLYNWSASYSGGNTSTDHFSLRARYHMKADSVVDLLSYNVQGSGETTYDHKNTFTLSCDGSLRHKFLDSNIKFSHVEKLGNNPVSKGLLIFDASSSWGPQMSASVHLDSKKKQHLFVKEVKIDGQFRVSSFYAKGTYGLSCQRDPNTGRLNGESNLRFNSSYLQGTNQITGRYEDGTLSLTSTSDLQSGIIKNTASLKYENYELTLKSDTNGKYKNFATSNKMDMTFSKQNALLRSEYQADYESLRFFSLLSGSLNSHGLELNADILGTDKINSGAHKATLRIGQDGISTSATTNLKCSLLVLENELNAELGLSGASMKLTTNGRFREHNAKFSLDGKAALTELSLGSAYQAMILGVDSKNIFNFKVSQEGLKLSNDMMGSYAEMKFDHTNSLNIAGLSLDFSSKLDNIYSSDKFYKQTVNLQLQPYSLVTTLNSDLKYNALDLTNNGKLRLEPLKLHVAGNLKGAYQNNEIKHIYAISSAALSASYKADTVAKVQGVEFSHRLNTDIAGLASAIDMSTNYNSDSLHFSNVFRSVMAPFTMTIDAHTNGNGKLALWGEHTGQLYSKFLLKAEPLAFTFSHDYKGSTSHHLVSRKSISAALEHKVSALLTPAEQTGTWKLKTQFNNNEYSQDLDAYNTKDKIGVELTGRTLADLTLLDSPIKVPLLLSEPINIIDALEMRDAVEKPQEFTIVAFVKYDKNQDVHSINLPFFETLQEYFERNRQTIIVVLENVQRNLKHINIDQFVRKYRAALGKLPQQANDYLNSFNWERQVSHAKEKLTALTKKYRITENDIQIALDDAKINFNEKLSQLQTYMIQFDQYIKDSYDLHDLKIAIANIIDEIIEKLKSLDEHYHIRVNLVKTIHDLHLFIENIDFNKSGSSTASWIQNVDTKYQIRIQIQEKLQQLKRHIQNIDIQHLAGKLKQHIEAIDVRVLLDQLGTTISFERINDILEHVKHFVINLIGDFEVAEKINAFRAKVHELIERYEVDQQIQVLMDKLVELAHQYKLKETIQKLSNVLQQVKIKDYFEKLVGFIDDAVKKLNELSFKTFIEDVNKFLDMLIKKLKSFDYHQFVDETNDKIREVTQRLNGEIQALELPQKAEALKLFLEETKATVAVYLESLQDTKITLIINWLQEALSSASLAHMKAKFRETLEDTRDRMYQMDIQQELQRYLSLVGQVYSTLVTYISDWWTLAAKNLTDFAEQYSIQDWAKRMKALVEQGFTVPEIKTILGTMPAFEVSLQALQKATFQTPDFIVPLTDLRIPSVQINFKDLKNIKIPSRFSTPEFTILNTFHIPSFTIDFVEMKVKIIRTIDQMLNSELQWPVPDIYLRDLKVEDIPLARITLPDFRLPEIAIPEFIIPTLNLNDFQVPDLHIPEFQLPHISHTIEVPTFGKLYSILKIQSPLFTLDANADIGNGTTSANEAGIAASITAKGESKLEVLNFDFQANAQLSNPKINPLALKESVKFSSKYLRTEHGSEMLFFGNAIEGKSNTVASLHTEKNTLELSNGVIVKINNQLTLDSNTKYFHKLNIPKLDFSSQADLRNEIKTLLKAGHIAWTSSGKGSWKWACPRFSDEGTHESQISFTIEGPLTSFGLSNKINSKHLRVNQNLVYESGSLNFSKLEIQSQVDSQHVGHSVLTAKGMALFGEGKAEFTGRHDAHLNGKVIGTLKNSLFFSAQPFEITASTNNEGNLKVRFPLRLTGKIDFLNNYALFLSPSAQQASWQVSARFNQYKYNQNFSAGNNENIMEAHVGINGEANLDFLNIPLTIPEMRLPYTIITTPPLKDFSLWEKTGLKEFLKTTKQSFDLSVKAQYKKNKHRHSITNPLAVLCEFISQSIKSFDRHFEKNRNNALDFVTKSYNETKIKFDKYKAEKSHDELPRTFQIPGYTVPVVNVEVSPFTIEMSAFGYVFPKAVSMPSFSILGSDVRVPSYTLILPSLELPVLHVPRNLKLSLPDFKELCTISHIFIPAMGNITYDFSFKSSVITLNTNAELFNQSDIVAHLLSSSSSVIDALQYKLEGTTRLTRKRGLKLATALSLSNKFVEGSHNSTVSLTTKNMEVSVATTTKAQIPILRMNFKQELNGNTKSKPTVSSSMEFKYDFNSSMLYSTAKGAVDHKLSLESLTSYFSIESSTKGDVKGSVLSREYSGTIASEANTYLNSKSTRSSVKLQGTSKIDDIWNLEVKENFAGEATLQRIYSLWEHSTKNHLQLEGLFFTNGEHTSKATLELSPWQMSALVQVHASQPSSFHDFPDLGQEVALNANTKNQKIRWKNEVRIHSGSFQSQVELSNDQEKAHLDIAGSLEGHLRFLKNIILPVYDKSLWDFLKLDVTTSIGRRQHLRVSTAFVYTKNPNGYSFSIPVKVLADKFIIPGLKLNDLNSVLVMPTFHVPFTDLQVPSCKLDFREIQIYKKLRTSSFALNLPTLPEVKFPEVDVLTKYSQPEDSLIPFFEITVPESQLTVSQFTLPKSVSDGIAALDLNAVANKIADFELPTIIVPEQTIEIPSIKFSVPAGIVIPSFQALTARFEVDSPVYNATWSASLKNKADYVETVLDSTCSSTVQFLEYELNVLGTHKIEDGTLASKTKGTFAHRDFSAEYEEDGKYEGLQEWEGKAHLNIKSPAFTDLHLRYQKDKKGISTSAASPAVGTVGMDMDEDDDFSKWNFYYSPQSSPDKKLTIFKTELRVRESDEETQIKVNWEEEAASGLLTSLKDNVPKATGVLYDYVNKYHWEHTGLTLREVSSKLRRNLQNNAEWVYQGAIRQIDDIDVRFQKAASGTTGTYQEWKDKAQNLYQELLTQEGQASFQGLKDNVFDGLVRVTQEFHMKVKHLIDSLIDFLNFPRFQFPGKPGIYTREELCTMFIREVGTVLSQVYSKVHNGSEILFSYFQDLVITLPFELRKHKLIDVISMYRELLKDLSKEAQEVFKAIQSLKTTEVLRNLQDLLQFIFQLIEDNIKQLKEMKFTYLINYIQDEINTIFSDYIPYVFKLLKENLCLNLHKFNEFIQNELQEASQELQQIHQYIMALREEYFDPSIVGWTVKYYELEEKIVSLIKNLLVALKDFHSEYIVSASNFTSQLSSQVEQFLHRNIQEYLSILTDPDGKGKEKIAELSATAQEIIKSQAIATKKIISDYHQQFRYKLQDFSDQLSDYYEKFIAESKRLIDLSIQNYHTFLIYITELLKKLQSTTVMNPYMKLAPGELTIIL

With “recombinant arNOX SF2 (recombinant apoBNOX, TM9SF2 expressed in E. coli from pET11a-TM9SF2)”, the Oxidation of protein thiols of human apoB (DTNB reactivity), nmoles SH oxidized, complete mixture, 2 h (nmoles SH oxidized) is 500 and the Oxidation of protein thiols of human apoB (DTNB reactivity), relative units, complete mixture, 2 h (relative units) was determined as 25.
